Our source for the screen value values is paper PMC12102759 (2025).

First the molecules themselves.
B1: CBL peptide 538-553 (E3 ubiquitin-protein ligase CBL), 16-mer library wild type / YES SH3 (YES1 SH3 domain, residues 90-152) (parent complex)
chain 1: TLRDLPPPPPPDRPYS
chain 2: not shown

The variants in this assay derive from B1. Kind of assay: proteomic peptide phage display deep mutational scan (ProP-PD DMS): M13 P8 16-mer library selected against immobilised GST-tagged bait for four days (rounds), NGS of the eluted pools per day and pseudo-replica; bait immobilised on MaxiSorp plates (10 µg), library pre-cleared on GST, 2 h binding at 4 °C, five washes; one round per day, days 1-4; value from days 2 and 3.
Turning to chain 1 P14G, the screen value was 0.000593 average fractional NGS count over selection days 2 and 3 (reads of this peptide / all reads for the bait, averaged over ….

Regarding chain 1 P11F, the screen value was 0.00176 average fractional NGS count over selection days 2 and 3 (reads of this peptide / all reads for the bait, averaged over ….

With chain 1 P11D, the screen value was 7.75e-05 average fractional NGS count over selection days 2 and 3 (reads of this peptide / all reads for the bait, averaged over ….

As for chain 1 P11Y, the screen value is 0.00117 average fractional NGS count over selection days 2 and 3 (reads of this peptide / all reads for the bait, averaged over ….

Take chain 1 P11M: the screen value was 0.000374 average fractional NGS count over selection days 2 and 3 (reads of this peptide / all reads for the bait, averaged over ….

chain 1 P11Q: the screen value is 0.000805 average fractional NGS count over selection days 2 and 3 (reads of this peptide / all reads for the bait, averaged over ….

For the variant chain 1 P11I, the screen value was 0.00017 average fractional NGS count over selection days 2 and 3 (reads of this peptide / all reads for the bait, averaged over ….

As to chain 1 P11A, the screen value is 0.000414 average fractional NGS count over selection days 2 and 3 (reads of this peptide / all reads for the bait, averaged over ….

For chain 1 P11H, the screen value is 0.000426 average fractional NGS count over selection days 2 and 3 (reads of this peptide / all reads for the bait, averaged over ….

Regarding chain 1 P11V, the screen value was 0.000274 average fractional NGS count over selection days 2 and 3 (reads of this peptide / all reads for the bait, averaged over ….

Regarding chain 1 P11R, the screen value was 0.000288 average fractional NGS count over selection days 2 and 3 (reads of this peptide / all reads for the bait, averaged over ….

Regarding chain 1 P11N, the screen value is 9.7e-05 average fractional NGS count over selection days 2 and 3 (reads of this peptide / all reads for the bait, averaged over ….

Regarding chain 1 P11W, the screen value was 0.000174 average fractional NGS count over selection days 2 and 3 (reads of this peptide / all reads for the bait, averaged over ….

Take chain 1 P11T: the screen value was 0.00257 average fractional NGS count over selection days 2 and 3 (reads of this peptide / all reads for the bait, averaged over ….

As for chain 1 P11S, the screen value is 4.62e-05 average fractional NGS count over selection days 2 and 3 (reads of this peptide / all reads for the bait, averaged over ….

Take chain 1 P11L: the screen value is 0.000447 average fractional NGS count over selection days 2 and 3 (reads of this peptide / all reads for the bait, averaged over ….

As to chain 1 P11K, the screen value is 0.00117 average fractional NGS count over selection days 2 and 3 (reads of this peptide / all reads for the bait, averaged over ….

Turning to chain 1 L2W, the screen value was 0.00229 average fractional NGS count over selection days 2 and 3 (reads of this peptide / all reads for the bait, averaged over ….

With chain 1 L2V, the screen value is 0.00022 average fractional NGS count over selection days 2 and 3 (reads of this peptide / all reads for the bait, averaged over ….

With chain 1 L2R, the screen value was 0.000311 average fractional NGS count over selection days 2 and 3 (reads of this peptide / all reads for the bait, averaged over ….

In the case of chain 1 L2P, the screen value was 0.00136 average fractional NGS count over selection days 2 and 3 (reads of this peptide / all reads for the bait, averaged over ….

Turning to chain 1 L2D, the screen value is 0.000976 average fractional NGS count over selection days 2 and 3 (reads of this peptide / all reads for the bait, averaged over ….

On to chain 1 L2F, for which the screen value is 0.00251 average fractional NGS count over selection days 2 and 3 (reads of this peptide / all reads for the bait, averaged over ….

Turning to chain 1 L2I, the screen value is 0.000452 average fractional NGS count over selection days 2 and 3 (reads of this peptide / all reads for the bait, averaged over ….

With chain 1 L2M, the screen value was 0.00216 average fractional NGS count over selection days 2 and 3 (reads of this peptide / all reads for the bait, averaged over ….

Turning to chain 1 L2E, the screen value is 0.00558 average fractional NGS count over selection days 2 and 3 (reads of this peptide / all reads for the bait, averaged over ….

On to chain 1 L2N, for which the screen value is 0.00027 average fractional NGS count over selection days 2 and 3 (reads of this peptide / all reads for the bait, averaged over ….

Take chain 1 L2T: the screen value was 0.00177 average fractional NGS count over selection days 2 and 3 (reads of this peptide / all reads for the bait, averaged over ….

In the case of chain 1 L2K, the screen value was 0.0014 average fractional NGS count over selection days 2 and 3 (reads of this peptide / all reads for the bait, averaged over ….

Take chain 1 L2A: the screen value was 0.00082 average fractional NGS count over selection days 2 and 3 (reads of this peptide / all reads for the bait, averaged over ….

On to chain 1 R13I, for which the screen value was 0.000728 average fractional NGS count over selection days 2 and 3 (reads of this peptide / all reads for the bait, averaged over ….

For the variant chain 1 R13H, the screen value is 6.28e-05 average fractional NGS count over selection days 2 and 3 (reads of this peptide / all reads for the bait, averaged over ….

chain 1 R13S: the screen value is 0.000102 average fractional NGS count over selection days 2 and 3 (reads of this peptide / all reads for the bait, averaged over ….

Consider chain 1 R13V, for which the screen value was 0.000492 average fractional NGS count over selection days 2 and 3 (reads of this peptide / all reads for the bait, averaged over ….

On to chain 1 R13G, for which the screen value is 3.78e-05 average fractional NGS count over selection days 2 and 3 (reads of this peptide / all reads for the bait, averaged over ….

In the case of chain 1 R13W, the screen value is 0.00314 average fractional NGS count over selection days 2 and 3 (reads of this peptide / all reads for the bait, averaged over ….

With chain 1 R13N, the screen value is 0.000641 average fractional NGS count over selection days 2 and 3 (reads of this peptide / all reads for the bait, averaged over ….

Consider chain 1 R13E, for which the screen value is 0.000127 average fractional NGS count over selection days 2 and 3 (reads of this peptide / all reads for the bait, averaged over ….

With chain 1 R13T, the screen value was 0.000227 average fractional NGS count over selection days 2 and 3 (reads of this peptide / all reads for the bait, averaged over ….

As to chain 1 R13A, the screen value was 0.00128 average fractional NGS count over selection days 2 and 3 (reads of this peptide / all reads for the bait, averaged over ….

Consider chain 1 R13F, for which the screen value was 0.000441 average fractional NGS count over selection days 2 and 3 (reads of this peptide / all reads for the bait, averaged over ….

As to chain 1 P7H, the screen value was 7.35e-05 average fractional NGS count over selection days 2 and 3 (reads of this peptide / all reads for the bait, averaged over ….

With chain 1 P7V, the screen value was 0.00339 average fractional NGS count over selection days 2 and 3 (reads of this peptide / all reads for the bait, averaged over ….

Take chain 1 P7G: the screen value is 0.000231 average fractional NGS count over selection days 2 and 3 (reads of this peptide / all reads for the bait, averaged over ….

Take chain 1 P7K: the screen value was 0.000378 average fractional NGS count over selection days 2 and 3 (reads of this peptide / all reads for the bait, averaged over ….

As to chain 1 P7T, the screen value was 0.000231 average fractional NGS count over selection days 2 and 3 (reads of this peptide / all reads for the bait, averaged over ….

Regarding chain 1 P7S, the screen value was 0.00158 average fractional NGS count over selection days 2 and 3 (reads of this peptide / all reads for the bait, averaged over ….

For chain 1 P7E, the screen value is 0.00022 average fractional NGS count over selection days 2 and 3 (reads of this peptide / all reads for the bait, averaged over ….

On to chain 1 P7N, for which the screen value was 0.000153 average fractional NGS count over selection days 2 and 3 (reads of this peptide / all reads for the bait, averaged over ….

With chain 1 P7M, the screen value was 0.000243 average fractional NGS count over selection days 2 and 3 (reads of this peptide / all reads for the bait, averaged over ….

For the variant chain 1 P7L, the screen value is 0.000549 average fractional NGS count over selection days 2 and 3 (reads of this peptide / all reads for the bait, averaged over ….

Turning to chain 1 P7I, the screen value is 0.00214 average fractional NGS count over selection days 2 and 3 (reads of this peptide / all reads for the bait, averaged over ….

With chain 1 P7A, the screen value was 0.00162 average fractional NGS count over selection days 2 and 3 (reads of this peptide / all reads for the bait, averaged over ….

Regarding chain 1 P10Q, the screen value is 0.000423 average fractional NGS count over selection days 2 and 3 (reads of this peptide / all reads for the bait, averaged over ….

As for chain 1 P10L, the screen value was 0.000964 average fractional NGS count over selection days 2 and 3 (reads of this peptide / all reads for the bait, averaged over ….

For the variant chain 1 P10M, the screen value was 0.000512 average fractional NGS count over selection days 2 and 3 (reads of this peptide / all reads for the bait, averaged over ….

In the case of chain 1 P10R, the screen value was 0.000614 average fractional NGS count over selection days 2 and 3 (reads of this peptide / all reads for the bait, averaged over ….

chain 1 P10Y: the screen value is 0.00108 average fractional NGS count over selection days 2 and 3 (reads of this peptide / all reads for the bait, averaged over ….

For chain 1 P10N, the screen value was 0.000197 average fractional NGS count over selection days 2 and 3 (reads of this peptide / all reads for the bait, averaged over ….

For chain 1 P10E, the screen value is 0.00012 average fractional NGS count over selection days 2 and 3 (reads of this peptide / all reads for the bait, averaged over ….

On to chain 1 P10F, for which the screen value is 0.0021 average fractional NGS count over selection days 2 and 3 (reads of this peptide / all reads for the bait, averaged over ….

As for chain 1 P10S, the screen value is 0.00132 average fractional NGS count over selection days 2 and 3 (reads of this peptide / all reads for the bait, averaged over ….

With chain 1 P10T, the screen value is 0.00196 average fractional NGS count over selection days 2 and 3 (reads of this peptide / all reads for the bait, averaged over ….

On to chain 1 P10A, for which the screen value was 0.000136 average fractional NGS count over selection days 2 and 3 (reads of this peptide / all reads for the bait, averaged over ….

In the case of chain 1 P10W, the screen value is 0.00035 average fractional NGS count over selection days 2 and 3 (reads of this peptide / all reads for the bait, averaged over ….

Turning to chain 1 P10I, the screen value was 0.00183 average fractional NGS count over selection days 2 and 3 (reads of this peptide / all reads for the bait, averaged over ….

Turning to chain 1 P10H, the screen value was 0.00108 average fractional NGS count over selection days 2 and 3 (reads of this peptide / all reads for the bait, averaged over ….

As to chain 1 P9V, the screen value is 0.000276 average fractional NGS count over selection days 2 and 3 (reads of this peptide / all reads for the bait, averaged over ….

Regarding chain 1 P9N, the screen value is 0.000239 average fractional NGS count over selection days 2 and 3 (reads of this peptide / all reads for the bait, averaged over ….

In the case of chain 1 P9L, the screen value was 0.000514 average fractional NGS count over selection days 2 and 3 (reads of this peptide / all reads for the bait, averaged over ….

For the variant chain 1 P9T, the screen value is 0.000558 average fractional NGS count over selection days 2 and 3 (reads of this peptide / all reads for the bait, averaged over ….

Turning to chain 1 P9S, the screen value is 0.000162 average fractional NGS count over selection days 2 and 3 (reads of this peptide / all reads for the bait, averaged over ….

Take chain 1 P9Q: the screen value was 0.000144 average fractional NGS count over selection days 2 and 3 (reads of this peptide / all reads for the bait, averaged over ….

With chain 1 P9R, the screen value was 8.13e-05 average fractional NGS count over selection days 2 and 3 (reads of this peptide / all reads for the bait, averaged over ….

With chain 1 P9A, the screen value is 0.000623 average fractional NGS count over selection days 2 and 3 (reads of this peptide / all reads for the bait, averaged over ….
